Eight sequences from patent US20150291967 can be followed below.

Assay in all cases: cell_activity
The test system of series [1] is TALEN ALS2_T01 right monomer (synthetic construct).
Series [2] concerns TALEN ALS2_T01 left monomer (synthetic construct).
The subject of series [3] is TALEN ALS1_T01 left monomer (synthetic construct). As to conditions: yeast beta-galactosidase reporter, pair with P2, 37 C (0.83 at 30 C).
Series [4] concerns TALEN ALS1_T01 right monomer (synthetic construct). As to conditions: yeast beta-galactosidase reporter, pair with P1, 37 C (0.83 at 30 C).
The test system of series [5] is TALEN ALS1_T02 right monomer (synthetic construct).
In series [6] the test system is TALEN ALS2_T02 right monomer (synthetic construct).
Series [7] has as its system TALEN ALS1_T02 left monomer (synthetic construct).
In series [8] the test system is TALEN ALS2_T02 left monomer (synthetic construct).

In the case of “TGTCATGCTGGGTCAGA (double strand) [ALS2_T01 right half-site (top strand)]”, in series [1] (endogenous site, N. benthamiana protoplasts, pair with P5, control 0.25%), the activity is 74 % NHEJ. This sequence also yielded an activity (relative to I-SceI) in series [1] (yeast beta-galactosidase reporter, pair with P5, 37 C (0.9 at 30 C)) of 1.
In series [2] (endogenous site, N. benthamiana protoplasts, pair with P6, control 0.25%), “TAGCTTGTTCCACATTT (double strand) [ALS2_T01 left half-site]” displayed an activity of 74 % NHEJ. This sequence also displayed an activity (relative to I-SceI) in series [2] (yeast beta-galactosidase reporter, pair with P6, 37 C (0.9 at 30 C)) of 1.
Sequence “TTTAGTGCGATAAAGTT (double strand) [ALS1_T01 left half-site]” gave an activity (relative to I-SceI) in series [3] of 0.93.
“TTTTATTTCGTAAGCTA (double strand) [ALS1_T01 right half-site (top strand)]” showed an activity (relative to I-SceI) in series [4] of 0.93.
Turning to “TATAAGTTGATTCTTAA (double strand) [ALS1_T02 right half-site (top strand)]”, the activity in series [5] (endogenous site, N. benthamiana protoplasts, pair with P3, control 0.55%) was found to be 4.9 % NHEJ. The same sequence showed an activity (relative to I-SceI) in series [5] (yeast beta-galactosidase reporter, pair with P3, 37 C (0.90 at 30 C)) of 0.95.
In turn, “CTGTCTCCTATTTCCTA (double strand) [ALS2_T02 right half-site (top strand)]” came in with an activity in series [6] (endogenous site, N. benthamiana protoplasts, pair with P7, control 0.10%) of 66.9 % NHEJ. Moreover, in series [6] (yeast beta-galactosidase reporter, pair with P7, 37 C (0.9 at 30 C)), the activity (relative to I-SceI) is 1.
With “TTGGACTTGTATGGGTT (double strand) [ALS1_T02 left half-site]”, the activity in series [7] (endogenous site, N. benthamiana protoplasts, pair with P4, control 0.55%) amounted to 4.9 % NHEJ. The same sequence yielded an activity (relative to I-SceI) in series [7] (yeast beta-galactosidase reporter, pair with P4, 37 C (0.90 at 30 C)) of 0.95.
“TTCTCTCGAGTCCTAGG (double strand) [ALS2_T02 left half-site]” showed an activity in series [8] (endogenous site, N. benthamiana protoplasts, pair with P8, control 0.10%) of 66.9 % NHEJ. Further, the activity (relative to I-SceI) in series [8] (yeast beta-galactosidase reporter, pair with P8, 37 C (0.9 at 30 C)) was found to be 1.
